Source: US20240141039A1 (AGENUS, published 2024)

Target: T1, wild type full-length human TIGIT expressed on cells (human, UniProt Q495A1 22-244)
T1 construct: whole, on cells; also called human TIGIT-CHO; human TIGIT CHO cells
T1 sequence (looked up): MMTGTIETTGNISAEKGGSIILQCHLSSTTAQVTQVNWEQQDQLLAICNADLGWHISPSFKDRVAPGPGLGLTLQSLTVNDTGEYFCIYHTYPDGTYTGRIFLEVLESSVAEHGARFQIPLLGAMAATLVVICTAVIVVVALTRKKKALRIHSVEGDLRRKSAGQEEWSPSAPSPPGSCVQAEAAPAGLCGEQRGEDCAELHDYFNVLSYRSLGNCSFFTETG
Test: flow cytometry on CHO cells expressing human TIGIT, PE anti-human IgG Fc detection
Procedure: For the antibody binding assay, a frozen aliquot of human TIGIT-CHO cells was thawed at 37° C. and then transferred to a tube containing DPBS supplemented with 0.5% Bovine Serum Albumin and 0.05% Sodium Azide (FACS Buffer). Cells were centrifuged at 300 g for five minutes. The supernatant was discarded, and cells resuspended in FACS buffer were seeded in a 96-well U-bottom tissue culture plate at a density of 2×10⁵ cells per well in 50 μL. In a separate microplate, a 2× concentrated intermediate stock of each antibody was prepared. Antibodies were serially diluted 1-to-4 in FACS buffer. A total of 11 working dilutions ranging from 60 μg/mL to 0.000057 μg/mL were prepared. Fifty microlitres of each dilution were then transferred to the microplate containing human TIGIT-CHO cells. The cells were then incubated for 45 minutes at 4° C. […] After a 30-minute incubation on ice, the cells were washed twice with cold FACS Buffer, and the cells were analyzed by flow cytometry (BD LSR Fortessa Flow Cytometer). The data were analyzed using the FlowJo software by sequentially gating the FSC-A vs. SSC-A, and SSC-H vs. SSC-A. Mean fluorescence intensity (MFI) values for PE were calculated, and the data were plotted by GraphPad Prism software.

B1: anti-TIGIT×CD96 multispecific molecule BA127 (bispecific antibody, human IgG1, kappa, lambda)
heavy 1: QVQLVQSGAEVKKPGASVKVSCKASGYTFTTYALHWVRQAPGQRLEWMGWINTGSGDTKYSQKFQGRVTITRDTSASTAYMELSSLRSEDTAVYYCARSLGVYYGMDVWGQGTLVTVSSASTKGPSVFPLAPSSKSTSGGTAALGCLVKDYFPEPVTVSWNSGALTSGVHTFPAVLQSSGLYSLSSVVTVPSSSLGTQTYICNVNHKPSNTKVDKRVEPKSCDKTHTCPPCPAPELLGGPDVFLFPPKPKDTLMISRTPEVTCVVVDVSHEDPEVKFNWYVDGVEVHNAKTKPREEQYNSTYRVVSVLTVLHQDWLNGKEYKCKVSNKALPAPIEKTISKAKGQPREPQVYTLPPSREEMTKNQVSLSCAVKGFYPSDIAVEWESNGQPENNYKTTPPVLDSDGSFFLVSKLTVDKSRWQQGNVFSCSVMHEALHNHYTQKSLSLSPG
light 1: not shown
heavy 2: EVQLVQSGAEVKKPGSSVKVSCKASGYTFASYGISWVRQAPGQGLEWMGGITPFFNRVDVAEKFQGRVTITADKSTSTAYIELSSLRSEDTAVYYCARDLRRGGVGDAFDIWGRGTLVTVSSASTKGPSVFPLAPSSKSTSGGTAALGCLVKDYFPEPVTVSWNSGALTSGVHTFPAVLQSSGLYSLSSVVTVPSSSLGTQTYICNVNHKPSNTKVDKRVEPKSCDKTHTCPPCPAPELLGGPDVFLFPPKPKDTLMISRTPEVTCVVVDVSHEDPEVKFNWYVDGVEVHNAKTKPREEQYNSTYRVVSVLTVLHQDWLNGKEYKCKVSNKALPLPEEKTISKAKGQPREPQVYTLPPSREEMTKNQVSLWCLVKGFYPSDIAVEWESNGQPENNYKTTPPVLDSDGSFFLYSKLTVDKSRWQQGNVFSCSVMHEALHNHYTQKSLSLSPG
light 2: QSALTQPRSVSGSPGQSVTISCTGTSPDVGSHAYRSWYQQHPGKAPKLMIYEVSYRPSGVSNRFSGSKSGNTASLTISGLQAEDEADYYCSSYPPSSATVFGAGTKLTVLGQPKAAPSVTLFPPSSEELQANKATLVCLISDFYPGAVTVAWKADSSPVKAGVETTTPSKQSNNKYAASSYLSLTPEQWKSHRSYSCQVTHEGSTVEKTVAPTEC
notes: Anti-CD96 arm = BA139, anti-TIGIT arm = BA150; copies: 1 + 1 + 1 + 1
EC50 (read off the curve): ~0.03 µg/mL
